Assays:
Test in all cases: biochemical
Assay type in all cases: biochemical
266 human kinases [1] = biological target: 266 human kinases (Homo sapiens, UniProt P54646); conditions: AMPKα2(h); 100 μM
How it was run: (§1)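 Inhibition was judged from reduced transfer of labelled phosphate from ATP to a positively charged substrate, which was captured on a negatively charged membrane and quantified by scintillation counting against a 100% activity control.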

266 human kinases [2] = biological target: 266 human kinases (Homo sapiens, UniProt P05771); conditions: PKCβI(h); 100 μM
Sequence of 266 human kinases (Homo sapiens, UniProt P05771) (P05771 whole entry): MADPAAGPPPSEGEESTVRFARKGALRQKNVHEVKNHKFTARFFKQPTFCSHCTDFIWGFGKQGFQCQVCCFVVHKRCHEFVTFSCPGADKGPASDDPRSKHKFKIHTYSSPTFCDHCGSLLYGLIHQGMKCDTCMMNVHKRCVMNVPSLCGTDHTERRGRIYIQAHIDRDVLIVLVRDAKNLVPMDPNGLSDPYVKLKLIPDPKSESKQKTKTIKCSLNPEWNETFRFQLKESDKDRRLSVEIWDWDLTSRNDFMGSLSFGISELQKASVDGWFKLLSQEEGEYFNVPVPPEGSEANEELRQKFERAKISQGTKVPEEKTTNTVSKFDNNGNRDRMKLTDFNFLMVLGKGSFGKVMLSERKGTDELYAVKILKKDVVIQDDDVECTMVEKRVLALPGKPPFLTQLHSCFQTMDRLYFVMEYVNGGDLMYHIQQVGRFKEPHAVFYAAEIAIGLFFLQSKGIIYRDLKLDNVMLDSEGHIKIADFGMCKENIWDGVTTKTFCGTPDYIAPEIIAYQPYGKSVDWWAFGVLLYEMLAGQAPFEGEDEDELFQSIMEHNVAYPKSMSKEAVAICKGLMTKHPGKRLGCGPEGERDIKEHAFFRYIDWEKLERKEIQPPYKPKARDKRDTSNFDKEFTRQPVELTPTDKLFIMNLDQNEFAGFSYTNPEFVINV
How it was run: as §1

266 human kinases [3] = biological target: T1, 266 human kinases (Homo sapiens, UniProt P41743); conditions: PKCι(h); 100 μM
T1 sequence (P41743 1-596): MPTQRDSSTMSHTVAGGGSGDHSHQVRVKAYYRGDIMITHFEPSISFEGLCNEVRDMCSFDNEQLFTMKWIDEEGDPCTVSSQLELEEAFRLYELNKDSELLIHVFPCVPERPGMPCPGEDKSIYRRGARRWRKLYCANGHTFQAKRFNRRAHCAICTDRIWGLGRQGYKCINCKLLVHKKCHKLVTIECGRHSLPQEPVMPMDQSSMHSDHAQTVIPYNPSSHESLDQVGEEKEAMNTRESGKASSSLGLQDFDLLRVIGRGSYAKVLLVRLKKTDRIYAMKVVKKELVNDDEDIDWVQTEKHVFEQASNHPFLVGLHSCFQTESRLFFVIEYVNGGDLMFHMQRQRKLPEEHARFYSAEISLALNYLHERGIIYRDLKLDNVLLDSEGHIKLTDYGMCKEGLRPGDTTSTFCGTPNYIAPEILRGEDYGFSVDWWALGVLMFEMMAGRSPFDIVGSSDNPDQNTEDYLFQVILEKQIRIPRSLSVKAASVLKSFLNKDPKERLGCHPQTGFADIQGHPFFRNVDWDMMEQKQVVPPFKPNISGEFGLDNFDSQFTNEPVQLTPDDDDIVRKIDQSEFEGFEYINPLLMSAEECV
How it was run: as §1

266 human kinases [4] = biological target: 266 human kinases (Homo sapiens, UniProt P15735); conditions: PhKγ2(h); 100 μM
Sequence of 266 human kinases (Homo sapiens, UniProt P15735) (P15735 whole entry): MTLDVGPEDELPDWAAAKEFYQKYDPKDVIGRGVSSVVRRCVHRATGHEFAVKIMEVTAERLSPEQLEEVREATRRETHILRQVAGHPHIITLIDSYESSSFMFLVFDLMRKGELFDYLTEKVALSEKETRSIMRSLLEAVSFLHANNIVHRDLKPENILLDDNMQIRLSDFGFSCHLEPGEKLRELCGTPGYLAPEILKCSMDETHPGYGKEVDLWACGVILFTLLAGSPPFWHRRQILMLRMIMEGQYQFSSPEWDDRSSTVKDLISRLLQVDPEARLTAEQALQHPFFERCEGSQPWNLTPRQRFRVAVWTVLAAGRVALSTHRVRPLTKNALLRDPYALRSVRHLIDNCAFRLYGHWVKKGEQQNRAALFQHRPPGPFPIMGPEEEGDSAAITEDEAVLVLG
How it was run: as §1

266 human kinases [5] = biological target: 266 human kinases (Homo sapiens, UniProt O15530); conditions: PDK1(h); 100 μM
Sequence of 266 human kinases (Homo sapiens, UniProt O15530) (O15530 whole entry): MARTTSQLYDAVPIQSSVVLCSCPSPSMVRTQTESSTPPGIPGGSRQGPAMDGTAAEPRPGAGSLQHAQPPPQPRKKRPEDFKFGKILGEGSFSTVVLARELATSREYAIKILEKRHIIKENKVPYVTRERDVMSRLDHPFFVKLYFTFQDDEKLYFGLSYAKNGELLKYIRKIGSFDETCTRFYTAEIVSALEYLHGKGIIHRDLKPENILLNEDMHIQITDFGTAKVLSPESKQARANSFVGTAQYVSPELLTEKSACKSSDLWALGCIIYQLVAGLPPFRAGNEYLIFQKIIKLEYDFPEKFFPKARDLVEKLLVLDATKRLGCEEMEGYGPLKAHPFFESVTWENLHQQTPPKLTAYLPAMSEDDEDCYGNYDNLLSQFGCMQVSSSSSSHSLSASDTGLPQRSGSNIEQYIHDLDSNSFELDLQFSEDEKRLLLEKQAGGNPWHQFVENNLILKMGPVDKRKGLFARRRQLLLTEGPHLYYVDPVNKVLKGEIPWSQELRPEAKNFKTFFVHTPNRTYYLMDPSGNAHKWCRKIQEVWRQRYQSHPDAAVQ
How it was run: as §1

266 human kinases [6] = biological target: T2, 266 human kinases (Homo sapiens, UniProt Q6PHR2); conditions: ULK3(h); 100 μM
T2 sequence (Q6PHR2 1-472): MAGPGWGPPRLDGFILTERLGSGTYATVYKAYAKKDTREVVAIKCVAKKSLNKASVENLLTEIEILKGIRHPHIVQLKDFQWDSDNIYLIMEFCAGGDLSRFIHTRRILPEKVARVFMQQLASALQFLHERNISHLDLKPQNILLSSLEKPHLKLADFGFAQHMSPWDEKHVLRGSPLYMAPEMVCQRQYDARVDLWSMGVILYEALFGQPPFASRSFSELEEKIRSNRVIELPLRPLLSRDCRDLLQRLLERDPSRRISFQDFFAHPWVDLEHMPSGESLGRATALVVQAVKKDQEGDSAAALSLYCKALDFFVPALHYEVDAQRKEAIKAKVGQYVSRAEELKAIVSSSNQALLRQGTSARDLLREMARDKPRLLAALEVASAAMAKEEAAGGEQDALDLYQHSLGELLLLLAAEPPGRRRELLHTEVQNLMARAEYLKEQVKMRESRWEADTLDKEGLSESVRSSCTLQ
How it was run: as §1

266 human kinases [7] = biological target: T3, 266 human kinases (Homo sapiens, UniProt Q15139); conditions: PKCμ(h); 100 μM
T3 sequence (Q15139 1-912): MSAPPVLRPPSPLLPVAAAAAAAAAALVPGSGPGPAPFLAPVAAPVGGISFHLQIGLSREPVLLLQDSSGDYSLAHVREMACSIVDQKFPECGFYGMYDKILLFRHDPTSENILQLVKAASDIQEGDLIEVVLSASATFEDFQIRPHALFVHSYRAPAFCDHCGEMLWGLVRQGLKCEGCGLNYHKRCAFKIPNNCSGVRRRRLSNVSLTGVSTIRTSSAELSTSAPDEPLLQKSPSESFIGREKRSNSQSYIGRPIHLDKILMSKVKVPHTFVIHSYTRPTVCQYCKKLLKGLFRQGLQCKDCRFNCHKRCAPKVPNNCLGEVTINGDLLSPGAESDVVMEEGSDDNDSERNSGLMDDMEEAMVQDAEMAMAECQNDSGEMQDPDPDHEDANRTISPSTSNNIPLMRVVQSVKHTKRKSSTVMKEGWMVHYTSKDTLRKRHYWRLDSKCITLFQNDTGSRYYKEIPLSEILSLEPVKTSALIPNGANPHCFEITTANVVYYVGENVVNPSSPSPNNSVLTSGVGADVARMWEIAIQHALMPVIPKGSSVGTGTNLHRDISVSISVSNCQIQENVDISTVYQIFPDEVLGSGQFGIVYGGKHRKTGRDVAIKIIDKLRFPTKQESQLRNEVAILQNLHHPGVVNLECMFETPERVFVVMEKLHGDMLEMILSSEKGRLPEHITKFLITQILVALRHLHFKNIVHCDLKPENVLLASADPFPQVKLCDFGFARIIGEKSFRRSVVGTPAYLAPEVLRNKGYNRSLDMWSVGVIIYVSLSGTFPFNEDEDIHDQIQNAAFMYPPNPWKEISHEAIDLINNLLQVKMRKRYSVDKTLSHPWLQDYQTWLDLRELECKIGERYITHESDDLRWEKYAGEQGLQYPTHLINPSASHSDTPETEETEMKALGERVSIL
How it was run: as §1

266 human kinases [8] = biological target: 266 human kinases (Homo sapiens, UniProt P50613); conditions: CDK7/cyclinH/MAT1(h); 100 μM
Sequence of 266 human kinases (Homo sapiens, UniProt P50613) (P50613 whole entry): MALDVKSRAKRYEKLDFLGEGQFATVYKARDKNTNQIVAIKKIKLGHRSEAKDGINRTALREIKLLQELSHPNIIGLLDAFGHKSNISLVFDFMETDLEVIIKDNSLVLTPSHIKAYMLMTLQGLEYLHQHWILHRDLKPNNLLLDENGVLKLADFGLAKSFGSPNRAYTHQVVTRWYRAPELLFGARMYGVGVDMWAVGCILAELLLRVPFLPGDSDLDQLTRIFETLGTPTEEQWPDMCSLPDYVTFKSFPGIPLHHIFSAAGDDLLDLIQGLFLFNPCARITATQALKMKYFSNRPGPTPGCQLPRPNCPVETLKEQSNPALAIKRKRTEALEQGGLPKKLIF
How it was run: as §1

Sequence of 266 human kinases (Homo sapiens, UniProt P54646) (P54646 whole entry): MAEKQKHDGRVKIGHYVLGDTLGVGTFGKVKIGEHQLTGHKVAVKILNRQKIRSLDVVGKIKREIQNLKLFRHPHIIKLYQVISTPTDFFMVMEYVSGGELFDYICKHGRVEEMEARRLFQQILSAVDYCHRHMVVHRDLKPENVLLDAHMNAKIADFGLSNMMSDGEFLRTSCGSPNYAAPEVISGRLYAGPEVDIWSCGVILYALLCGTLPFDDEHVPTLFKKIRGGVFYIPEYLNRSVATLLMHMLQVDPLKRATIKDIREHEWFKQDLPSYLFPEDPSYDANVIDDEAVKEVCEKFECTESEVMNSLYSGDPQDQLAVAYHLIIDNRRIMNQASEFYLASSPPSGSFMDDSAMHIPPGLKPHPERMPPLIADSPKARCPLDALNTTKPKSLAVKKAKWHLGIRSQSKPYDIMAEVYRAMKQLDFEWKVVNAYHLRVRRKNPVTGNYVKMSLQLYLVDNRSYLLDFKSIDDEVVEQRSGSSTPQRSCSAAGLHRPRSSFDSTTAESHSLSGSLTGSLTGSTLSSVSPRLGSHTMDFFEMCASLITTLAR

Sequence	% activity (266 human kinases [1])	% activity (266 human kinases [2])	% activity (266 human kinases [3])	% activity (266 human kinases [4])	% activity (266 human kinases [5])	% activity (266 human kinases [6])	% activity (266 human kinases [7])	% activity (266 human kinases [8])
HRRIKAWLKKIKALARQLGVAA (mammal) [MMI-0500]	9%	1%	7%	16%	178%	177%	10%	15%
YARAAARQARAKALNRQLGVA (mammal) [MMI-0200]	88%	98%	97%	86%	143%	164%	73%	67%

From patent publication US20140072613A1, “Compositions and Methods for Treating Cutaneous Scarring” (priority 2012, published 2014)
